According to patent publication US20230357348A1 (AstraZeneca / MedImmune, published 2023):
Starred links: 1 amine or outer side, 2 acyl side, 3 side chain; linkers in the order of their positions; H or OH if unused. Non-standard residues stand in square brackets, D forms with d. Groups on a side chain read outwards from the residue. No end group written: not given here. *: point of attachment. C18 diacid = O=C(O)CCCCCCCCCCCCCCCCC(=O)*; γGlu = O=C(O)[C@H](CCC(=O)[*:2])N[*:1]; αMeF = C[C@](N)(Cc1ccccc1)C(=O)O; AEEA = NCCOCCOCC(=O)O; Aib = CC(C)(N)C(=O)O

Experiments:
Test in all cases: cell-based or functional assay
[1] = molecular target: human GLP-1 receptor (hGLP-1R) (human, UniProt P43220 24-463)
[2] = molecular target: human glucagon receptor (hGCGR) (human, UniProt P47871 26-477)
[3] = molecular target: human GLP-1 receptor (hGLP-1R) (human, UniProt P43220 24-463); remark: listed apart in the source

Chain of human glucagon receptor (hGCGR) (P47871 26-477): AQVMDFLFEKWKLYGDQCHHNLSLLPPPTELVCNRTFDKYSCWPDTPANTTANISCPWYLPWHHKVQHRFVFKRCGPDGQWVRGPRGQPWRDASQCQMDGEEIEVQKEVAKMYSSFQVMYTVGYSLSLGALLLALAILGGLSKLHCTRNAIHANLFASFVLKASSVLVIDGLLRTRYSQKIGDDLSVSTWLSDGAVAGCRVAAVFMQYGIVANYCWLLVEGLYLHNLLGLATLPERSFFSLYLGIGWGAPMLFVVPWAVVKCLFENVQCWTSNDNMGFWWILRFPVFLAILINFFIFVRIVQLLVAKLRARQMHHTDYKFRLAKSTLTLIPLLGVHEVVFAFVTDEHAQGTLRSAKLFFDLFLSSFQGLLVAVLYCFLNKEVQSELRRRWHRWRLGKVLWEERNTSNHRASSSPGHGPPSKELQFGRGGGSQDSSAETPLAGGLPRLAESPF

B1: Peptide 168 (peptide)
peptide: H[Aib]QGTFTSDVSK[αMeF]LDSK([AEEA-AEEA-γGlu-C18 diacid])RARDFVAWLL[Aib]TE-OH
modifications: N-terminus assumed
SMILES: CC(C)C[C@H](NC(=O)[C@H](Cc1c[nH]c2ccccc12)NC(=O)[C@H](C)NC(=O)[C@@H](NC(=O)[C@H](Cc1ccccc1)NC(=O)[C@H](CC(=O)O)NC(=O)[C@H](CCCNC(=N)N)NC(=O)[C@H](C)NC(=O)[C@H](CCCNC(=N)N)NC(=O)[C@H](CCCCNC(=O)COCCOCCNC(=O)COCCOCCNC(=O)CC[C@H](NC(=O)CCCCCCCCCCCCCCCCC(=O)O)C(=O)O)NC(=O)[C@H](CO)NC(=O)[C@H](CC(=O)O)NC(=O)[C@H](CC(C)C)NC(=O)[C@](C)(Cc1ccccc1)NC(=O)[C@H](CCCCN)NC(=O)[C@H](CO)NC(=O)[C@@H](NC(=O)[C@H](CC(=O)O)NC(=O)[C@H](CO)NC(=O)[C@@H](NC(=O)[C@H](Cc1ccccc1)NC(=O)[C@@H](NC(=O)CNC(=O)[C@H](CCC(N)=O)NC(=O)C(C)(C)NC(=O)[C@@H](N)Cc1c[nH]cn1)[C@@H](C)O)[C@@H](C)O)C(C)C)C(C)C)C(=O)N[C@@H](CC(C)C)C(=O)NC(C)(C)C(=O)N[C@H](C(=O)N[C@@H](CCC(=O)O)C(=O)O)[C@@H](C)O
hGLP-1R EC50 (pM) [1]: 448 pM
hGluc-R EC50 (pM) [2]: 886 pM

B2: Peptide 39 (peptide)
peptide: H[Aib]QGTFTSDVSK[αMeF]LDSK([AEEA-AEEA-γGlu-C18 diacid])RAQDFVRWLL[Aib]TE-OH
modifications: N-terminus assumed
SMILES: CC(C)C[C@H](NC(=O)[C@H](Cc1c[nH]c2ccccc12)NC(=O)[C@H](CCCNC(=N)N)NC(=O)[C@@H](NC(=O)[C@H](Cc1ccccc1)NC(=O)[C@H](CC(=O)O)NC(=O)[C@H](CCC(N)=O)NC(=O)[C@H](C)NC(=O)[C@H](CCCNC(=N)N)NC(=O)[C@H](CCCCNC(=O)COCCOCCNC(=O)COCCOCCNC(=O)CC[C@H](NC(=O)CCCCCCCCCCCCCCCCC(=O)O)C(=O)O)NC(=O)[C@H](CO)NC(=O)[C@H](CC(=O)O)NC(=O)[C@H](CC(C)C)NC(=O)[C@](C)(Cc1ccccc1)NC(=O)[C@H](CCCCN)NC(=O)[C@H](CO)NC(=O)[C@@H](NC(=O)[C@H](CC(=O)O)NC(=O)[C@H](CO)NC(=O)[C@@H](NC(=O)[C@H](Cc1ccccc1)NC(=O)[C@@H](NC(=O)CNC(=O)[C@H](CCC(N)=O)NC(=O)C(C)(C)NC(=O)[C@@H](N)Cc1c[nH]cn1)[C@@H](C)O)[C@@H](C)O)C(C)C)C(C)C)C(=O)N[C@@H](CC(C)C)C(=O)NC(C)(C)C(=O)N[C@H](C(=O)N[C@@H](CCC(=O)O)C(=O)O)[C@@H](C)O
hGLP-1R EC50 (pM) [1]: 76.1 pM
hGluc-R EC50 (pM) [2]: 194 pM

B3: Peptide 140 (peptide)
peptide: H[Aib]QGTFTSDVSK[αMeF]LDTK([AEEA-AEEA-γGlu-C18 diacid])RAQDFVRWLLE[Aib]G-OH
modifications: N-terminus assumed
SMILES: CC(C)C[C@H](NC(=O)[C@H](Cc1c[nH]c2ccccc12)NC(=O)[C@H](CCCNC(=N)N)NC(=O)[C@@H](NC(=O)[C@H](Cc1ccccc1)NC(=O)[C@H](CC(=O)O)NC(=O)[C@H](CCC(N)=O)NC(=O)[C@H](C)NC(=O)[C@H](CCCNC(=N)N)NC(=O)[C@H](CCCCNC(=O)COCCOCCNC(=O)COCCOCCNC(=O)CC[C@H](NC(=O)CCCCCCCCCCCCCCCCC(=O)O)C(=O)O)NC(=O)[C@@H](NC(=O)[C@H](CC(=O)O)NC(=O)[C@H](CC(C)C)NC(=O)[C@](C)(Cc1ccccc1)NC(=O)[C@H](CCCCN)NC(=O)[C@H](CO)NC(=O)[C@@H](NC(=O)[C@H](CC(=O)O)NC(=O)[C@H](CO)NC(=O)[C@@H](NC(=O)[C@H](Cc1ccccc1)NC(=O)[C@@H](NC(=O)CNC(=O)[C@H](CCC(N)=O)NC(=O)C(C)(C)NC(=O)[C@@H](N)Cc1c[nH]cn1)[C@@H](C)O)[C@@H](C)O)C(C)C)[C@@H](C)O)C(C)C)C(=O)N[C@@H](CC(C)C)C(=O)N[C@@H](CCC(=O)O)C(=O)NC(C)(C)C(=O)NCC(=O)O
hGLP-1R EC50 (pM) [3]: 22.7 pM

B4: Peptide 38 (peptide)
peptide: H[Aib]QGTFTSDVSK[αMeF]LDSK([AEEA-AEEA-γGlu-C18 diacid])RAQDFVEWLL[Aib]T-OH
modifications: N-terminus assumed
SMILES: CC(C)C[C@H](NC(=O)[C@H](Cc1c[nH]c2ccccc12)NC(=O)[C@H](CCC(=O)O)NC(=O)[C@@H](NC(=O)[C@H](Cc1ccccc1)NC(=O)[C@H](CC(=O)O)NC(=O)[C@H](CCC(N)=O)NC(=O)[C@H](C)NC(=O)[C@H](CCCNC(=N)N)NC(=O)[C@H](CCCCNC(=O)COCCOCCNC(=O)COCCOCCNC(=O)CC[C@H](NC(=O)CCCCCCCCCCCCCCCCC(=O)O)C(=O)O)NC(=O)[C@H](CO)NC(=O)[C@H](CC(=O)O)NC(=O)[C@H](CC(C)C)NC(=O)[C@](C)(Cc1ccccc1)NC(=O)[C@H](CCCCN)NC(=O)[C@H](CO)NC(=O)[C@@H](NC(=O)[C@H](CC(=O)O)NC(=O)[C@H](CO)NC(=O)[C@@H](NC(=O)[C@H](Cc1ccccc1)NC(=O)[C@@H](NC(=O)CNC(=O)[C@H](CCC(N)=O)NC(=O)C(C)(C)NC(=O)[C@@H](N)Cc1c[nH]cn1)[C@@H](C)O)[C@@H](C)O)C(C)C)C(C)C)C(=O)N[C@@H](CC(C)C)C(=O)NC(C)(C)C(=O)N[C@H](C(=O)O)[C@@H](C)O
hGLP-1R EC50 (pM) [1]: 75.6 pM
hGluc-R EC50 (pM) [2]: 441 pM

B5: Peptide 37 (peptide)
peptide: H[Aib]QGTFTSDVSK[αMeF]LDSK([AEEA-AEEA-γGlu-C18 diacid])RAEDFVQWLL[Aib]T-OH
modifications: N-terminus assumed
SMILES: CC(C)C[C@H](NC(=O)[C@H](Cc1c[nH]c2ccccc12)NC(=O)[C@H](CCC(N)=O)NC(=O)[C@@H](NC(=O)[C@H](Cc1ccccc1)NC(=O)[C@H](CC(=O)O)NC(=O)[C@H](CCC(=O)O)NC(=O)[C@H](C)NC(=O)[C@H](CCCNC(=N)N)NC(=O)[C@H](CCCCNC(=O)COCCOCCNC(=O)COCCOCCNC(=O)CC[C@H](NC(=O)CCCCCCCCCCCCCCCCC(=O)O)C(=O)O)NC(=O)[C@H](CO)NC(=O)[C@H](CC(=O)O)NC(=O)[C@H](CC(C)C)NC(=O)[C@](C)(Cc1ccccc1)NC(=O)[C@H](CCCCN)NC(=O)[C@H](CO)NC(=O)[C@@H](NC(=O)[C@H](CC(=O)O)NC(=O)[C@H](CO)NC(=O)[C@@H](NC(=O)[C@H](Cc1ccccc1)NC(=O)[C@@H](NC(=O)CNC(=O)[C@H](CCC(N)=O)NC(=O)C(C)(C)NC(=O)[C@@H](N)Cc1c[nH]cn1)[C@@H](C)O)[C@@H](C)O)C(C)C)C(C)C)C(=O)N[C@@H](CC(C)C)C(=O)NC(C)(C)C(=O)N[C@H](C(=O)O)[C@@H](C)O
hGLP-1R EC50 (pM) [1]: 68.6 pM
hGluc-R EC50 (pM) [2]: 2750 pM
